Measured values taken from publication PMC4210448.

Target: Map205 (UniProt P23226)
Assay: PrA-Map205 affinity purification, GFP blot
Settings: reference: Polo WT-GFP with Aurora B–Myc; sites T182

binding against the reference: stronger
Substance: Polo (from UniProt P52304) Polo T182A-GFP with Aurora B–Myc
